Experimental data from patent US20240216513A1, “FATTY ACID-BIFUNCTIONAL DEGRADER CONJUGATES AND THEIR METHODS OF USE” (Novartis AG, priority 2021, published 2024).

Experiments:
[1] = In vivo pharmacokinetic study in mice (i.v. or s.c.), FAC and payload in blood; parameters: species or system mouse; conditions: male
Protocol: (§1) Pharmacokinetic studies were conducted in male C57/B16 mice; male Sprague-Dawley rats; male Beagle dogs and male Cynomolgus monkeys. 3 animals per group were used for each study performed. All studies were performed in accordance with local animal welfare regulations.
(§2) […] Serial 30 µL blood samples were collected via venipuncture of the tail vein in mouse, and via the cannulated jugular vein in rats at defined timepoints to 216 hours (into EDTA coated tubes).
(§3) Each blood sample was precipitated with acetonitrile containing internal standard; samples were mixed and centrifuged (20 minutes 4000 RPM at 4° C.). Supernatant was transferred to a microwell plate and evaporated under nitrogen at 60° C. Residue was resuspended in acetonitrile/water (7:3 v/v); plate sealed and transferred to an ultrasonic bath for 3 minutes, prior to analysis. Quantification was performed by LC-MS/MS (SciexAP16500 Q-trap, Shimadzu Nexera X2) using a Phenomenex Polar RP analytical column (2.5 μm particle size; 50×2 mm). The mobile phase consisted of solvent A (0.1% formic acid in water) and solvent B (0.1% formic acid in acetonitrile). The fatty acid conjugate and API were detected using multiple reaction monitoring.
(§4) Data analysis and calculation of non-compartmental pharmacokinetic parameters was
(§5) performed using an in-house analysis. Following intravenous administration whole blood clearance was calculated by the dose administered divided by AUC0-inf. Volume of distribution at steady state was calculated as MRT*CL, where MRT is the mean residence time, calculated by AUMC0-inf/AUC0-inf. The half-life (t1/2) of the terminal elimination phase was calculated by 0.693/λ. For both intravenous and subcutaneous administration, the systemic exposures were determined by calculating the area under the blood concentration time curve (AUC) from time zero to the last observed quantifiable concentration (AUClast) by using the linear trapezoidal method and normalised to dose. Extrapolated AUC (AUC0-inf) is calculated by addition of AUClast and AUCtlast-inf; where AUCtlast-inf is calculated based on Clast/λ. The slope of the terminal elimination phase was estimated by linear regression of the terminal data points (minimum 3 points) from a natural log concentration versus time plot of the data. Bioavailability was calculated as the dose normalized ratio of […] AUCinf to intravenous AUCinf (100*[SC AUCinf/SC dose]/[IV AUCinf/IV dose]). Following subcutaneous administration Cmax is calculated as the average maximum observed peak concentration and Tmax is the time associated with the determined Cmax.
(§6) For PK experiments, non-tumor bearing mice or rats were treated once (10 mL/kg) with a compound either i.v. or s.c. Serial blood samplings from the tail vein (5-20 μl) were collected during the course of the experiment. For PK/PD experiments in tumor-bearing mice, compound was administered once (10 mL/kg) either i.v. or s.c. Animals were randomized into groups of n=3 and tissue samples were collected at several time points. At the times indicated, animals were anaesthetized by exposure to 2-3% v/v isoflurane in medical oxygen. They were sacrificed without recovering from anesthetic after blood sampling into commercially prepared EDTA coated tubes (Milian, cat #TOM-14C) in order to extract plasma. The tissues were excised, weighted and rapidly frozen in liquid nitrogen. Later, tumors were cryogenic dry pulverized with the CryoPrep™ system (model CP-02, Covaris). For efficacy experiments in ectopic tumor-bearing mice, animals were randomized into groups of n=6 for a mean tumor size of 100 mm^3 and compound was administered either i.v. q3w or s.c. q2w. When implanted in brain, animals were randomized into groups of n=4 for a mean bioluminescence of 1.0-2.0E+06 [p/s]/[ρW/cm^2] and compound was administered i.v. qw. Tumor response were reported with the measures of tumor volumes or bioluminescence from the treatment start. […]

BTK = target: T1, BTK (Homo sapiens, UniProt Q06187); assay: PK/PD in TMD8 tumor-bearing mice: BTK levels in tumor by Meso Scale Discovery; type: in vivo, mouse; conditions: for Duration of BTK degradation in mouse ≥90%: I.v.
T1 construct: endogenous in cells; host or cells: TMD8 tumour xenografts in SCID/BEIGE mice
Protocol: (§7) All animal experiments were performed according to procedures covered by permit number BS-1974, BS-1975 and BS-2904 issued by the Kantonales Veterinäramt Basel-Stadt and strictly adhered to the Eidgenössisches Tierschutzgesetz and the Eidgenössische Tierschutzverordnung. Female Sprague Dawley rat were obtained from Charles Rivers (Germany), female Balb/c mice from Charles Rivers (Italy) and female SCID/BEIGE (C.B-Igh-1b/GbmsTac-Prkdcscid-Lystbg N7) mice from Taconic. All the animals were housed in a pathogen-controlled environment with access to food and water ad libitum and they were identified with transponders.
(§8) Subcutaneous TMD8 tumors were induced by injecting tumor cells expanded in vitro in the right flank of SCID/BEIGE mice. As soon as the injection was finished, antagonization (naloxone, flumazenil and atipamezole injected s.c.) was injected and mice are put on a warming pad for recovery and carefully checked during that time.
(§9) For PK experiments, non-tumor bearing mice or rats were treated once (10 mL/kg) with a compound either i.v. or s.c. Serial blood samplings from the tail vein (5-20 μl) were collected during the course of the experiment. For PK/PD experiments in tumor-bearing mice, compound was administered once (10 mL/kg) either i.v. or s.c. Animals were randomized into groups of n=3 and tissue samples were collected at several time points. At the times indicated, animals were anaesthetized by exposure to 2-3% v/v isoflurane in medical oxygen. They were sacrificed without recovering from anesthetic after blood sampling into commercially prepared EDTA coated tubes (Milian, cat #TOM-14C) in order to extract plasma. The tissues were excised, weighted and rapidly frozen in liquid nitrogen. Later, tumors were cryogenic dry pulverized with the CryoPrep™ system (model CP-02, Covaris). For efficacy experiments in ectopic tumor-bearing mice, animals were randomized into groups of n=6 for a mean tumor size of 100 mm^3 and compound was administered either i.v. q3w or s.c. q2w. When implanted in brain, animals were randomized into groups of n=4 for a mean bioluminescence of 1.0-2.0E+06 [p/s]/[ρW/cm^2] and compound was administered i.v. qw. Tumor response were reported with the measures of tumor volumes or bioluminescence from the treatment start. Concentrations of compound in blood and tissues were determined simultaneously by UPLC/MS-MS. BTK and IL-10 levels in tumor were determined by Meso Scale Discovery (MSD).

TMD8 tumors = assay: Efficacy in ectopic (subcutaneous) TMD8 tumor-bearing SCID/BEIGE mice, tumor volume; type: in vivo, mouse; conditions: I.v.
Protocol: as §7, §8, §9

[2] = In vivo pharmacokinetic study in Beagle dogs (i.v. or s.c.), FAC and payload in blood; parameters: species or system dog
Protocol: as §1
(§10) Between 1 and 10 µM/kg FAC was administered either intravenously or subcutaneously as a solution in 10 mM PBS with NaOH (dose volume 0.4 mL/kg in dog and monkey s.c. and 0.2 mL/kg i.v. in monkey). Serial 100 µL blood samples were collected via venipuncture of the cephalic vein at defined timepoints to 336 hours (into EDTA coated tubes).
as §3, §4, §5

[3] = In vivo pharmacokinetic study in Cynomolgus monkeys (i.v. or s.c.), FAC and payload in blood; parameters: species or system cynomolgus monkey
Protocol: as §1, §10, §3, §4, §5

[4] = In vivo pharmacokinetic study in rats (i.v. or s.c.), FAC and payload in blood; parameters: species or system rat; conditions: male, Sprague-Dawley, rat, in vivo, sc, 40 umol/kg
Protocol: as §1, §2, §3, §4, §5, §6

[5] = C57/B16, mouse, in vivo, sc, 40 umol/kg

T1 sequence (Q06187 whole entry): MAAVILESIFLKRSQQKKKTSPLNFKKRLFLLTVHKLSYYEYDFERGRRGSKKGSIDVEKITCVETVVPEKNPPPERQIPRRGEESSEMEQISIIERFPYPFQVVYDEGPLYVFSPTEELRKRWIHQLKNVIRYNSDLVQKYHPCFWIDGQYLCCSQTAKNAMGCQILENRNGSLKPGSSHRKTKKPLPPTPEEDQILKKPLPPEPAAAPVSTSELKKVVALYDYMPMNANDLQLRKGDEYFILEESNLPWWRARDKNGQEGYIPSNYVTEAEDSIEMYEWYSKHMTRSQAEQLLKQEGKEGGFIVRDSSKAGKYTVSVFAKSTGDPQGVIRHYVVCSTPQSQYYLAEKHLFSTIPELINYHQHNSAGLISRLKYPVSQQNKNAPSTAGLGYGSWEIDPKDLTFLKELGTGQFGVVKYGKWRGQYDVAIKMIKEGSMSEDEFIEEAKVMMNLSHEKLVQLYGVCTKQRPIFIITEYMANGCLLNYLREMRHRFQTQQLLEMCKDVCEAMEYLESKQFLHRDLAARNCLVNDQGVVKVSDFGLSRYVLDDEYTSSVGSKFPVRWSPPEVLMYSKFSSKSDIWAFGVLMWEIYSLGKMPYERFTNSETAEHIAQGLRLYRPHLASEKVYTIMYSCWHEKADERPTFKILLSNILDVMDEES

Duration of BTK degradation in mouse ≥90% (BTK; 40 umol/kg)	AUC ([1]; C57/B16, whole blood, iv, Mouse, unconj. BTK Degrader dosed itself (i.v. per row label), API dose 10 umol/kg, read-out: Payload (BTK Degrader) AUC)	Cmax ([1]; C57/B16, whole blood, iv, Mouse, unconj. BTK Degrader dosed itself (i.v. per row label), API dose 10 umol/kg, read-out: Payload (BTK Degrader) Cmax)	Duration of BTK degradation in mouse ≥90% (BTK; 20 mg/kg (unconjugated N))	Duration of BTK degradation in mouse ≥90% (days) (BTK; s.c., 10 mg/kg (unconjugated N))	SMILES	AUC [1, 5]	Cmax [1, 5]	Dosing to achieve sustained ~90% regression (TMD8 tumors)	Fatty Acid Conjugate C0-uM d.n. Dog ([2]; analyte conjugate, d.n., Conj. i.v. dose 10 umol/kg)	AUC ([2]; male, Beagle, whole blood, sc, Dog, Conj. s.c. dose 10 umol/kg, read-out: Lipophilic Acid Conjugate AUC)	Cmax ([2]; male, Beagle, whole blood, sc, Dog, Conj. s.c. dose 10 umol/kg, read-out: Lipophilic Acid Conjugate Cmax)	Fatty Acid Conjugate C0-uM d.n. Cyno ([3]; analyte conjugate, d.n., Conj. i.v. dose 1 umol/kg)	AUC ([3]; male, cynomolgus monkey, whole blood, sc, Cyno, Conj. s.c. dose 1 umol/kg, read-out: Lipophilic Acid Conjugate AUC)	Cmax ([3]; male, cynomolgus monkey, whole blood, sc, Cyno, Conj. s.c. dose 1 umol/kg, read-out: Lipophilic Acid Conjugate Cmax)	Cmax [4]	AUC ([4]; Lipophilic Acid Conjugate AUC)
10 days					CCCCCCCCCCC[C@@](CCCCCCCCCCC(=O)O)(C(=O)O)C(=O)NCCOCCOCCOCCOCCOCCOCCOCCOCCOCCOCCOCCOCCC(=O)NCC(=O)OC(C)(C)c1ccc(C(=O)Nc2cc(F)cc(-c3ncnc4[nH]c(-c5ccc(CN6CCC(OC7CCN(CCn8cccc(CN9CCC(=O)NC9=O)c8=O)CC7)CC6)cc5)cc34)c2C)c(F)c1 (single isomer, unassigned) [Compound B2]	1860 µM·h	60 µM	60 umol/kg q3w								
14 days					CCCCCCCCCCC[C@](CCCCCCCCCCC(=O)O)(C(=O)O)C(=O)NCCOCCOCCOCCOCCOCCOCCOCCOCCOCCOCCOCCOCCC(=O)NCC(=O)OC(C)(C)c1ccc(C(=O)Nc2cc(F)cc(-c3ncnc4[nH]c(-c5ccc(CN6CCC(OC7CCN(CCn8cccc(CN9CCC(=O)NC9=O)c8=O)CC7)CC6)cc5)cc34)c2C)c(F)c1 (single isomer, unassigned) [Compound B3]	3850 µM·h	68 µM	20 umol/kg q3w								
10 days					CCCCCCCCCCCC(CCCCCCCCCCC(=O)O)(C(=O)O)C(=O)NCCOCCOCCOCCOCCOCCOCCOCCOCCOCCOCCOCCOCCC(=O)NCC(=O)OC(C)(C)c1ccc(C(=O)Nc2cc(F)cc(-c3ncnc4[nH]c(-c5ccc(CN6CCC(OC7CCN(CCn8cccc(CN9CCC(=O)NC9=O)c8=O)CC7)CC6)cc5)cc34)c2C)c(F)c1 (stereo not shown) [Compound B1, 2-((44-(4-((3-(6-(4-((4-((1-(2-(3-((2,4-Dioxotetrahydropyrimidin-1(2H)-yl)methyl)-2-oxopyridin-1(2H)-yl)ethyl)piperidin-4-yl)oxy)piperidin-1-yl)methyl)phenyl)-7H-pyrrolo[2,3-d]pyrimidin-4-yl)-5-fluoro-2-methylphenyl)carbamoyl)-3-fluorophenyl)-44-methyl-39,42-dioxo-3,6,9,12,15,18,21,24,27,30,33,36,43-tridecaoxa-40-azapentatetracontyl)carbamoyl)-2-undecyltridecanedioic acid]	3860 µM·h	71 µM	40 umol/kg q3w	3.3 µM	304 µM·h	37.5 µM	9.9 µM	26.1 µM·h	3.8 µM	11 µM	667 µM·h
	9.3 µM·h	1.6 µM	4 days	1(10 mg/kg) days	Cc1c(NC(=O)c2ccc(C(C)(C)O)cc2F)cc(F)cc1-c1ncnc2[nH]c(-c3ccc(CN4CCC(OC5CCN(CCn6cccc(CN7CCC(=O)NC7=O)c6=O)CC5)CC4)cc3)cc12 [Compound N, N-(3-(6-(4-((4-((1-(2-(3-((2,4-Dioxotetrahydropyrimidin-1(2H)-yl)methyl)-2-oxopyridin-1(2H)-yl)ethyl)piperidin-4-yl)oxy)piperidin-1-yl)methyl)phenyl)-7H-pyrrolo[2,3-d]pyrimidin-4-yl)-5-fluoro-2-methylphenyl)-2-fluoro-4-(2-hydroxypropan-2-yl)benzamide]			20 mg/kg 2qw								
